The nature of this series: protein stability index of a GFP-peptide fusion (GPS, HEK-293T) (PSI 1-6); higher = more stable.
Where [1] appears, read: treatment: DMSO, c terminus: a fixed tail appended.
Setting [2] is: treatment: MLN4924 1 uM, 8 h, c terminus: a fixed tail appended.

The values that follow come from the supplement of paper PMC10567573.

± gives the standard deviation.
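Note: 24-mer peptide tiles fused after GFP, lentivirally expressed, FACS-sorted into six equal bins by GFP/DsRed ratio, decoded by Illumina sequencing, PSI is the read-weighted mean bin number.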

With LSQLRVLCCEWLRPEKHTKEQILE [ZNF232], the protein stability index was 2.37 ± 0.35 under setting [1] and 2.2 ± 0.22 under setting [2].
LSRKKRLELDDNLDTERPVQKRAR [TRIB3]: the protein stability index under setting [1] came out at 4.79 ± 0.14 and the protein stability index under setting [2] is 4.62 ± 0.37.
LSTDMVHAASDPSSSSGRLSEPDP [SMOC2]: the protein stability index reads like this: under setting [1], 5.29 ± 0.24; under setting [2], 5.38 ± 0.15.
For LSTNNNTLRDHFKGISSHSRSSLM [SLC2A12] the same measures were 2.93 ± 0.3 and 3.3 ± 0.16.
Consider LSYVMSGYRCFVCPVEYNNDTNSF [CDS2], for which the protein stability index by setting is: under setting [1], 2.78 ± 0.42; under setting [2], 2.82 ± 0.45.
In the case of LTDDDVVDWDEEYPPQMGEEYSQI [BTBD10], the protein stability index reads like this: under setting [1], 5.15 ± 0.11; under setting [2], 5.22 ± 0.19.
For LTINPAKRITAHEALKHPWVCQRS [CAMK2B], the protein stability index by setting is: under setting [1], 2.55 ± 0.29; under setting [2], 2.95 ± 0.16.
Turning to LTNIWMARTCAKQNINAPAPATTS [C22orf31], the protein stability index by setting is: under setting [1], 2.51 ± 0.27; under setting [2], 2.59 ± 0.15.
As for LTNSEYRSEQSVKLRRQVIQVVLN [ZER1], the protein stability index reads like this: under setting [1], 2.51 ± 0.23; under setting [2], 2.44 ± 0.48.
For LTVVCAAGAEPLPRNGDQWHEIRQ [WEE1] the same measures were 2.55 ± 0.34 and 2.49 ± 0.4.
Take LTYENVERWLKELRDHADSNIVIM [RAB11A]: the protein stability index under setting [1] was 2.21 ± 0.34 and the protein stability index under setting [2] turned out to be 2.75 ± 0.3.
For LVEETSCQQNMIQELIETNQQLRN [CEP70], in that order: 4.3 ± 0.24 and 4.41 ± 0.3.
Turning to LVGNKSDLRHLRAVPTDEARAFAE [RAB11A], the protein stability index was 4.29 ± 0.34 under setting [1] and 4.39 ± 0.21 under setting [2].
Turning to LVPETEDDRKLAALLKFHTLDSYE [YJU2B], the protein stability index runs as follows: under setting [1], 3.62 ± 0.34; under setting [2], 3.58 ± 0.22.
For LVVLRFLTMNSEDERRDAEERASL [KCNK9] the same measures were 2.68 ± 0.15 and 2.62 ± 0.28.
Take LVYLGDLSRYQNELAGVDTELLAE [SMG5]: the protein stability index reads like this: under setting [1], 2.51 ± 0.2; under setting [2], 2.74 ± 0.11.
Take LWLTASQPCSIVDVEFLPVYHPSP [LPCAT4]: the protein stability index turned out to be 3.02 ± 0.74 under setting [1] and 2.53 ± 0.37 under setting [2].
For the sequence LYLLSGSIIAVAMQRGARLPAEVA [POMT2], the protein stability index worked out at 2.81 ± 0.38 under setting [1] and 3.21 ± 0.77 under setting [2].
On to LYSQLLQAYKWSNKLQYHAGLASG [MED27], for which the protein stability index is, setting by setting: under setting [1], 3.28 ± 0.55; under setting [2], 2.67 ± 0.71.
For MAAAEPSPRRVGFVGAGRMAGAIA [PYCR3], in that order: 2.97 ± 0.079 and 3.38 ± 0.073.
For MAALSRALGPLRTPAPPLWIGLFL, in that order: 2.35 ± 0.26 and 2.28 ± 0.63.
Take MAGNFWQSSHYLQWILDKQDLLKE [CCNC]: the protein stability index runs as follows: under setting [1], 2.34 ± 0.32; under setting [2], 2.57 ± 0.38.
With MALEPNTTFLRKSLKAALKHLGP [FANCE], the protein stability index is, setting by setting: (treatment: DMSO, c terminus: native) 2.48 ± 0.25; (treatment: MLN4924 1 uM, 8 h, c terminus: native) 2.33 ± 0.17.
With MASSSTVPLGFHYETKYVVLSYLG [BCL2L13], the protein stability index stood at 2.64 ± 0.48 under setting [1] and 2.33 ± 0.45 under setting [2].
As for MATRSSDWLRRPLGEDNQPETQLF [TLE6], the protein stability index reads like this: under setting [1], 3.91 ± 0.1; under setting [2], 3.87 ± 0.1.
With MDVERQETPEWLDSDSCQKCDQPF [WDFY2], the protein stability index was determined as 5.11 ± 0.25 under setting [1] and 5.08 ± 0.15 under setting [2].
As for MEAPGLAQAAAAESDSRKVAEETP [PRKX], the protein stability index runs as follows: under setting [1], 5.56 ± 0.38; under setting [2], 5.54 ± 0.31.
Turning to MEPAVSEPMRDQVARTHLTEDTPK [NSDHL], the protein stability index is 5.57 ± 0.16 under setting [1] and 5.51 ± 0.22 under setting [2].
Turning to MESKEKRAVNSLSMENANQENEEK [BEX1], the protein stability index under setting [1] worked out at 5.5 ± 0.25 and the protein stability index under setting [2] was 5.52 ± 0.23.
For MFTSELSEKGKPYVDIQGLTASTM [KLHL12] the same measures were 2.54 ± 0.31 and 2.88 ± 0.46.
For MGGAVSAGEDNDDLIDNLKEAQYI [PCMTD1], in that order: 4.82 ± 0.086 and 4.64 ± 0.17.
MGSSQATMTSSQSMNFSMMSTNTV [CLINT1] returned a protein stability index under setting [1] of 3.28 ± 0.27 and a protein stability index under setting [2] of 3.64 ± 0.25.
With MGSTESSEGRRVSFGVDEEERVRV [CHCHD6], the protein stability index by setting is: under setting [1], 5.15 ± 0.29; under setting [2], 5.22 ± 0.13.
MLIFWTITLFLLGAAKGKEVCYED [PNLIPRP1] gave a protein stability index under setting [1] of 3.72 ± 0.18 and a protein stability index under setting [2] of 3.3 ± 0.69.
With MLQIVVGVRDSGSPPLHANTSLHV [PCDHGC5], the protein stability index reads like this: under setting [1], 2.6 ± 0.47; under setting [2], 2.91 ± 0.72.
In the case of MLSIFYFAIPVGSGLGYIAGSKVK [SPNS1], the protein stability index reads like this: under setting [1], 2.83 ± 0.34; under setting [2], 3.05 ± 0.4.
Consider MMKPQAETGEAARDPSLRPARTVL, for which the protein stability index is 4.18 ± 0.13 under setting [1] and 4.33 ± 0.13 under setting [2].
MMSVNGQAKTHTDSSEKELEPEAA [ACBD3]: the protein stability index came out at 5.45 ± 0.21 under setting [1] and 5.38 ± 0.23 under setting [2].
Regarding MNEVEKTMEYSMVGRTVLDMLIRE [RSPH3], the protein stability index under setting [1] amounted to 2.59 ± 0.56 and the protein stability index under setting [2] is 2.16 ± 0.22.
In the case of MQELTEMLGFRPYRFYFYMWKFVS [SLC6A17], the protein stability index by setting is: under setting [1], 2.39 ± 0.21; under setting [2], 2.35 ± 0.35.
Take MQNLNDRLASYLDKVRALEEANAD [KRT15]: the protein stability index reads like this: under setting [1], 4.22 ± 0.32; under setting [2], 4.37 ± 0.23.
With MQPPPPGPLGDCLRDWEDLQQDFQ [TMEM120A], the protein stability index was determined as 4.86 ± 0.2 under setting [1] and 4.66 ± 0.2 under setting [2].
With MRLSKTLVDMDMADYSAALDPAYT [HNF4A], the protein stability index stood at 2.86 ± 0.28 under setting [1] and 3.08 ± 0.25 under setting [2].
Take MRTGQNTWESKNILAVSFAPLVQP [PCMTD1]: the protein stability index turned out to be 2.84 ± 0.65 under setting [1] and 2.71 ± 0.46 under setting [2].
With MVHQRKLEAELLQIEERHQEKKRK [SMARCE1], the protein stability index reads like this: under setting [1], 4.58 ± 0.34; under setting [2], 4.36 ± 0.32.
MVPHNLETTERMKCLYYLYATLDL [PDS5B] returned a protein stability index under setting [1] of 2.14 ± 0.29 and a protein stability index under setting [2] of 2.16 ± 0.38.
For MWGQSLLPPVSTSFTTGGLRIPFP [TNXB], the protein stability index was found to be 2.3 ± 0.41 under setting [1] and 2.42 ± 0.16 under setting [2].
For MYHYLQFAYYKLNDVRQAARSAAS [P3H4], in that order: 2.05 ± 0.42 and 2.33 ± 0.37.
Turning to MYSVEITVEKDKVTGETRVLSSTT [PALM], the protein stability index runs as follows: under setting [1], 2.93 ± 0.21; under setting [2], 3.19 ± 0.16.
Consider NATDPDEGTNGQLDYSFGDHTSEA [PCDHGC5], for which the protein stability index by setting is: under setting [1], 5.45 ± 0.32; under setting [2], 5.24 ± 0.12.
Consider NCKPLKSYMLQDSLEHVQLFDLMR [CLK3], for which the protein stability index runs as follows: under setting [1], 2.11 ± 0.31; under setting [2], 2.25 ± 0.35.
With NDRLYAIGGNHLKGFSHLDVMLVE [KLHL14], the protein stability index by setting is: under setting [1], 2.35 ± 0.33; under setting [2], 2.58 ± 0.17.
NELVKCIEELCQKREELCRQIQEE [SSNA1]: the protein stability index was 3.62 ± 0.33 under setting [1] and 3.76 ± 0.26 under setting [2].
